The target of assay [1] is T1, protein A56 of the oncolytic virus WOTS-418 (vaccinia virus (WOTS-418, Western …, UniProt Q01218 17-314)).
T1 construct: also called WOTS-418-A56; protein A56 variant
As to the kind of experiment: flow cytometry, PC3 cells treated with WOTS-418.

Assay [2] has as its target T2, protein A56 of the oncolytic virus OTS-412 (vaccinia virus (OTS-412), UniProt P08714 17-315).
T2 construct: also called OTS-412-A56; protein A56 variant
T2 chain: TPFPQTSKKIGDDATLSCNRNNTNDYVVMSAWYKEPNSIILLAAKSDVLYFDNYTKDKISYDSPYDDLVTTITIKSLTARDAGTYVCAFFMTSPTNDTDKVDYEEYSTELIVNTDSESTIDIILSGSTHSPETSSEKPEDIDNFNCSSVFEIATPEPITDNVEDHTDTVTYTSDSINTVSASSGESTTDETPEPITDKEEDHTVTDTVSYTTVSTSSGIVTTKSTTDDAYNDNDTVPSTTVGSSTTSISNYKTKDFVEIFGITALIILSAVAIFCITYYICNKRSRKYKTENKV
As to the kind of experiment: flow cytometry, MCF7 cells treated with OTS-412. On the technique in general: In flow cytometry, cells or beads pass a laser one at a time.

The target of assay [3] is T2, protein A56 of the oncolytic virus …. Kind of assay: flow cytometry, PC3 cells treated with OTS-412.
The target in assay [4] is T1, protein A56 of the oncolytic virus …. Kind of assay: flow cytometry, PC3 cells treated with WOTS-418 (overlay, FIG. 75).
The target of assay [5] is T2, protein A56 of the oncolytic virus …. Kind of assay: flow cytometry, PC3 cells treated with OTS-412 (overlay, FIG. 74).
Assay [6] deals with T1, protein A56 of the oncolytic virus …. As to the kind of experiment: flow cytometry, MCF7 cells treated with WOTS-418.

B1: A56-02B08 (Ab16) (antibody, V domains shown)
VH: QVQLQQSGPGLVKPSQTLSLTCAISGDSVSSNSAAWNWIRQSPSRGLEWLGRTYYRSKWYNDYAVSVKSRITINPDTSKNQFSLQLNSVTAVDTAVYYCAKSYAGPISYYYYGLDVWGQGTTVTVSS
VL: QSALTQPASVSGSPGQSVTISCTGTSSDIGRYNLVSWYQQHPGKAPKLMIYGGSKRPSGVSNRFSGSNSDNTASLTISGLRAEDEADYYCSSYASSSTPYVFGTGTKVTVL
As for B1, the “binding signal (flow cytometry, %)” value in assay [1] was no less than 70%; in assay [2], no less than 80%; in assay [3] it was no less than 70%; in assay [4] it was no less than 60%; in assay [5], no less than 60%; in assay [6] it was no less than 80%.

Values taken from patent US20220389085A1 (BIONOXX, published 2022).
